The results in this text go back to article PMC10215022.

In experiment [1] the target is SARS-CoV-2 Omicron BA.5 spike protein, plate-bound (MSD V-PLEX) (SARS-CoV-2 Omicron BA.5).
Experiment [2] addresses SARS-CoV-2 Wuhan (WT) spike protein RBD, His-tagged (SARS-CoV-2 Wuhan (WT)) (UniProt P0DTC2). Put plainly: SPR. A general note: Surface plasmon resonance follows binding to a sensor surface in real time, without labels.

As usually defined, the IC50 is the concentration that gives 50% inhibition. A lower IC50 goes with greater potency in that assay. In turn, “REGEN-COV mAb cocktail (casirivimab and imdevimab at 1:1 molar ratio)” returned an IC50 in experiment [1] of 5.2 nM.
As usually defined, the Kd is the free concentration of one partner at which half of the binding sites on the other are occupied at equilibrium, for simple one-to-one binding. A low value points to tighter binding. The koff is the first-order rate constant of dissociation. Lower therefore signals a long-lived complex. A word on the kon: it is a measure of how fast the partners come together. “decavalent IgM ACE2 decoy (from UniProt Q9BYF1;P01591) (Fc fusion)”: in experiment [2], the Kd is 0.097 nM, the koff came to 3.5e-05 s⁻¹ and the kon is 380000 M⁻¹ s⁻¹.
